Residues, ends and D or L forms follow the SMILES beside them. No end group written: not given here.

In one data set the test system is HIV. Put plainly: microbe, parasite or virus in culture. The data set is classed as cell-based, HIV-1. The note with it: human PBMCs. On the procedure:
Fresh human blood was obtained commercially from Interstate Blood Bank, Inc. (Memphis, Tenn.). The lymphotropic clinical isolate HIV-1ROJO was obtained from a pediatric patient attending the AIDS Clinic at the University of Alabama at Birmingham. The laboratory-adapted HIV-1IIIB strain was propagated and tittered in fresh human PBMCs; pre-titered aliquots of HIV-1ROJO and Hiv-1IIIB were removed from the freezer (−80° C.) and thawed rapidly to room temperature in a biological safety cabinet immediately before use. Phytohemagglutinin (PHA-P) was obtained from Sigma (St. Louis, Mo.) and recombinant IL-2 was obtained from Amgen (San Francisco, Calif.).
Fresh human PBMCs were isolated from screened donors, seronegative for HIV and HBV. Leukophoresed blood was diluted 1:1 with Dulbecco's phosphate buffered saline (PBS), layered over 14 mL of Ficoll-Hypaque density gradient in a 50 mL centrifuge tube and then centrifuged for 30 minutes at 600×g. Banded PBMCs were aspirated from the resulting interface and subsequently washed 2× with PBS by low speed centrifugation. After the final wash, cells were enumerated by trypan blue exclusion and re-suspended at 1×10^7 cells/mL in RPMI 1640 supplemented with 15% Fetal Bovine Serum (FBS), 2 mM L-glutamine, 4 μg/mL PHA-P. The cells were allowed to incubate for 48-72 hours at 37° C. After incubation, PBMCs were centrifuged and reset in RPMI 1640 with 15% FBS, 2 mM L-glutamine, 100 U/ml penicillin, 100 μg/mL streptomycin, 10 μg/mL gentamycin, and 20 U/mL recombinant human IL-2. PBMCs were maintained in this medium at a concentration of 1-2×10^6 cells/mL with biweekly medium changes until used in the assay protocol.
For the standard PBMC assay, PHA-P stimulated cells from at least two normal donors were pooled, diluted in fresh medium to a final concentration of 1×10^6 cells/mL, and plated in the interior wells of 96 well round bottom microplate at 50 μL/well (5×10^4 cells/well). Test drug dilutions were prepared at a 2× concentration in microtiter tubes and […] of each concentration was placed in appropriate wells in a standard format. […] Wells with cells and virus alone were used for virus control. Separate plates were prepared identically without virus for drug cytotoxicity studies using an XTT assay system. The PBMC cultures were maintained for seven days following infection, at which time cell-free supernate samples were collected and assayed for reverse transcriptase activity as described below.
A microtiter based reverse transcriptase (RT) reaction was utilized. See Buckheit et al., AIDS Research and Human Retroviruses 7:295-302 (1991). Tritiated thymidine triphosphate (NEN) (TTP) was resuspended in distilled H2O at 5 Ci/ml. Poly rA and oligo dT were prepared as a stock solution which was kept at −20° C. The RT reaction buffer was prepared fresh on a daily basis and consists of 125 μl 1M EGTA, 125 μl dH2O, 110 μl 10% SDS, 50 μl 1M Tris (pH 7.4), 50 μl 1M DTT, and 40 μl 1M MgCL2. These three solutions were mixed together in a ratio of 2 parts TTP, 1 part poly rA:oligo dT, and 1 part reaction buffer. Ten microliters of this reactions mixture was placed at a round bottom microtiter plate and 15 μl of virus containing supernatant was added and mixed. […] Opti-Fluor-O (Packard) was added to each sample and incorporated radioactivity was quantified utilizing a Wallac 1450 MicroBeta Plus liquid scintillation counter.

For data set [1], the target named is T1, Tsg101 (Homo sapiens, UniProt Q99816).
T1 sequence (Q99816 1-390): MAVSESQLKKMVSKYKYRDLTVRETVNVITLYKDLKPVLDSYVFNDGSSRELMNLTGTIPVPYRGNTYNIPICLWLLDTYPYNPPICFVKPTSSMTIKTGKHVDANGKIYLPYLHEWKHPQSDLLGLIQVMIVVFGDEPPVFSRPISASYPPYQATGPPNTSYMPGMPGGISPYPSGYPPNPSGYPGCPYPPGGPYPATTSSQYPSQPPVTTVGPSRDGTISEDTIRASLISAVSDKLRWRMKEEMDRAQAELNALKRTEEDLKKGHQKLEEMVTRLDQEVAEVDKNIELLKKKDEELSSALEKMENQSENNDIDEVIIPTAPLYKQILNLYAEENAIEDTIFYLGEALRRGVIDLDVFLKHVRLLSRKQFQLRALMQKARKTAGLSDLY
As to the kind of experiment: Two-hybrid liquid culture β-galactosidase assay. In kind it is cell-based. Details: expressed in transfected cells. The note with it: full length Tsg101, liquid culture; for β-galactosidase activity (in words): p6 point mutants. On the procedure:
The interactions between TSG101 and wild-type p6gag (WT) or the p6gag PTAP (SEQ ID NO:1) mutants were further quantitated by performing liquid culture β-galactosidase assays. Cultures were grown overnight in synthetic media (−Leu, −Trp, +glucose) in 96 well plates, normalized for optical density, and lysed by addition of 6× lysis/substrate solution in 6× Z-buffer (60 mM KCl, 6 mM MgSO4, 360 mM Na2HPO4, 240 mM NaH2PO4, 6 mg/ml CPRG, 0.12 U/ml lyticase, 0.075% NP-40). Cultures were incubated for 2 hr at 37° C., clarified by centrifugation, and the optical absorbance of each supernatant was measured (575 nm). Full length Tsg101 bound wild-type p6 in the two-hybrid liquid culture assay, resulting in high levels of β-galactosidase activity (>300-fold over background). […] Each of these point mutations also arrests HIV-1 budding at a late stage (Huang et al. 1995).

Data set [2] addresses T1, Tsg101. Put plainly: Yeast two-hybrid filter lift assay for β-Gal activity, Tsg101 with p6gag constructs. The data set is classed as cell-based. Details: expressed in transfected cells; host or cells: Saccharomyces cerevisiae strain Y189; key to Interactions Between Tsg101 and p6gag (β-Gal activity): +: Positive β-Gal activity indicates that the p6gag wild type or mutant protein interacts with Tsg101. The following applies: for Interactions Between Tsg101 and p6gag (β-Gal activity): yeast strain Y189, activation domain-Tsg101 plus binding domain-p6gag construct, X-Gal filter lift. An excerpt: Yeast two-hybrid assays were utilized to determine the effect of amino acid substitution mutations in the PTAP (SEQ ID NO:1) motif of HIV p6gag on the interaction between Tsg101 and p6gag. To prepare a yeast two-hybrid activation domain-Tsg101 construct, a DNA fragment encompassing the full-length coding sequence for Tsg101 according to GenBank Accession No. U82130 was obtained by PCR from a human fetal brain cDNA library and cloned into the EcoRI/Pst1 sites of the activation domain parent plasmid GADpN2 (LEU2, CEN4, ARS1, ADH1p-SV40NLS-GAL4 (768-881)-MCS (multiple cloning site)-PGKlt, AmpR, ColE1_ori).
To prepare the yeast two-hybrid DNA binding domain-HIV1 p6gag construct, a DNA fragment corresponding to the HIV1 p6 peptide derived from the HIV1.NL43 strain GAG protein was obtained by PCR from the NL43 containing plasmid R9Δapa and was cloned into the EcoRI/Sal1 sites of the binding domain parent plasmid pGBT.Q. The sequence of the amplified insert is shown in SEQ ID NO:34.
The following amino acid substitution mutations were introduced by PCR into the HIV1 p6gag sequence in the yeast two-hybrid binding domain-HIV1 p6gag construct described above. The mutations were verified by DNA sequence analysis.
To test the effect of the mutations, yeast cells of the strain Y189 purchased from Clontech (ura3-52 his3*200 ade2-101 trp1-901 leu2-3,112 met gal4 gal80 URA3::GAL1p-lacZ) were co-transformed with the activation domain-Tsg101 construct and one of the binding domain-mutant p6gag constructs or the binding domain-wild type p6gag construct. Filter lift assays for β-Gal activity were conducted by lifting the transformed yeast colonies with filters, lysing the yeast cells by freezing and thawing, and contacting the lysed cells with X-Gal. […] All binding domain constructs were also tested for self-activation of β-Gal activity.

Regarding `C[C@H](NC(=O)[C@@H](NC(=O)[C@@H]1CCCN1C(=O)[C@H](CCC(=O)O)NC(=O)[C@@H]1CCCN1C(=O)[C@H](CCCNC(=N)N)NC(=O)[C@H](CCCNC(=N)N)NC(=O)[C@H](CCCNC(=N)N)NC(=O)[C@H](CCCNC(=N)N)NC(=O)[C@H](CCCNC(=N)N)NC(=O)[C@H](CCCNC(=N)N)NC(=O)[C@H](CCCNC(=N)N)NC(=O)[C@H](CCCNC(=N)N)NC(=O)[C@@H](N)CCCNC(=N)N)[C@@H](C)O)C(=O)N1CCC[C@H]1C(=O)N[C@@H](CCC(=O)O)C(=O)N[C@@H](CCC(=O)O)C(=O)O` [MPI-PEP1, NH2—(R)9-PEPTAPEE-COOH] (H-RRRRRRRRRPEPTAPEE-OH), the “Comments (anti-HIV activity)” value in the data set with HIV is “Active”.

As to `CC(C)C[C@H](NC(=O)[C@H](C)NC(=O)[C@@H](NC(=O)[C@@H]1CCCN1C(=O)[C@H](CCC(=O)O)NC(=O)[C@@H]1CCCN1C(=O)[C@H](CCCNC(=N)N)NC(=O)[C@H](CCCNC(=N)N)NC(=O)[C@H](CCCNC(=N)N)NC(=O)[C@H](CCCNC(=N)N)NC(=O)[C@H](CCCNC(=N)N)NC(=O)[C@H](CCCNC(=N)N)NC(=O)[C@H](CCCNC(=N)N)NC(=O)[C@H](CCCNC(=N)N)NC(=O)[C@@H](N)CCCNC(=N)N)[C@@H](C)O)C(=O)N[C@@H](CCC(=O)O)C(=O)N[C@@H](CCC(=O)O)C(=O)O` [MPI-PEP2, NH2—(R)9-PEPTALEE-COOH] (H-RRRRRRRRRPEPTALEE-OH), the “Comments (anti-HIV activity)” value in the data set on HIV was “Inactive”.

Take `C[C@H](NC(=O)[C@@H](NC(=O)[C@@H]1CCCN1C(=O)[C@H](CCC(=O)O)NC(=O)[C@@H]1CCCN1C(=O)[C@@H](N)CCCNC(=N)N)[C@@H](C)O)C(=O)N1CCC[C@H]1C(N)=O` [MPI-PEP3, NH2-RPEPTAP-CO—NH2] (H-RPEPTAP-NH2): in the data set on HIV, the “Comments (anti-HIV activity)” value was “Inactive”.

As for “p6(A9R): HIV1 p6gag binding domain construct with A9R substitution in the PTAP motif (LQSRPEPTRPPEESFRFGEETTTPSQKQEPIDKELYPLASLRSLFGSDPSSQ; not fully specified)”, the “β-galactosidase activity (in words)” value with Tsg101 [1] is recorded as “reduced β-galactosidase activity to background levels”.

Take “p6(E6G): HIV1 p6gag binding domain construct with E6G substitution outside the PTAP motif (LQSRPGPTAPPEESFRFGEETTTPSQKQEPIDKELYPLASLRSLFGSDPSSQ; not fully specified)”: the “Tsg101-p6gag interaction (in words)” value with Tsg101 [2] (summary of Table II) is listed as “did not result in the elimination of the Tsg101-p6gag interaction”. Besides, the “Interactions Between Tsg101 and p6gag (β-Gal activity)” value with Tsg101 [2] was “+”.

Consider “p6(P7L): HIV1 p6gag binding domain construct with P7L substitution in the PTAP motif (LQSRPELTAPPEESFRFGEETTTPSQKQEPIDKELYPLASLRSLFGSDPSSQ; not fully specified)”, for which the “β-galactosidase activity (in words)” value with Tsg101 [1] is reported as “reduced β-galactosidase activity to background levels”.

As for “p6(P10L): HIV1 p6gag binding domain construct with P10L substitution in the PTAP motif (LQSRPEPTALPEESFRFGEETTTPSQKQEPIDKELYPLASLRSLFGSDPSSQ; not fully specified)”, the “β-galactosidase activity (in words)” value with Tsg101 [1] is listed as “reduced β-galactosidase activity to background levels”.

“p6(wt): wild type HIV1 p6gag (NL43 strain) as yeast two-hybrid DNA binding domain construct” came in with a β-galactosidase activity with Tsg101 [1] (absorbance 575 nm) greater than 300 fold over background. In the data set with Tsg101 [2], the “Interactions Between Tsg101 and p6gag (β-Gal activity)” value is on record as “+”.
